Laboratory results reported in publication PMC8707168, “PL1 Peptide Engages Acidic Surfaces on Tumor-Associated Fibronectin and Tenascin Isoforms to Trigger Cellular Uptake” (Pharmaceutics, 2021).
Substitutions are numbered along the chain they refer to. Names may count otherwise. “Also recorded” adds a separate entry of the source. FAM = 5(6)-carboxyfluorescein; Ahx = NCCCCCC(=O)O

How the values were obtained:
U87-MG cells = experiment: Effect of endocytosis inhibitors on PL1-AgNP uptake (flow cytometry); type: cell-based; settings: pre-incubation with 50 μM Nystatin, 50 μM EIPA, 4 μM Cytochalasin D or 10 μM Chlorpromazine, PL1-AgNPs 37 °C 1 h, etching, three independent experiments
Procedure: For characterization of the AgNP uptake pathway in glioma cells, the U87-MG cells were cultured until 80–90% confluency and pre-incubated with the following endocytosis inhibitors: (1) 50 μM Nystatin to block caveolae/lipid-mediated endocytosis, (2) 50 μM 5-(N-ethyl-N-isopropyl)-Amiloride (EIPA) to block […], (3) 4 μM Cytochalasin D to block actin polymerization and […], and (4) 10 μM Chlorpromazine to block clathrin-mediated endocytosis. The PL1-AgNPs or control biotin-AgNPs were then added, and the cells were incubated at 37 °C for 1 h and subsequently washed to remove free particles. Some samples were also treated with an etching solution to remove accessible surface-bound AgNPs. The fluorescence of the labeled AgNPs was detected and analyzed using the BD Accuri 6 flow cytometer in the 555 nm channel.

TNC-C WT and mutants = biological target: T1, TNC-C WT and mutants (Homo sapiens, UniProt P24821, D1565N/D1571N); experiment: Binding of PL1 nanoworms to recombinant TNC-C proteins; settings: FAM-labeled NWs, 80 µg/reaction, protein on Ni-NTA beads, fluorescence 485/535 nm, baseline corrected with control protein P32; three independent experiments
T1 construct: Tenascin C C-isoform (TNC-C); made in house; host or cells: E. coli BL21 Rosetta 2 (DE3) pLysS
T1 sequence (P24821 1527-1617 D1565N/D1571N): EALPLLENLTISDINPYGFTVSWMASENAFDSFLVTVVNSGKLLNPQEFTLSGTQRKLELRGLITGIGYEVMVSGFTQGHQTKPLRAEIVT
Procedure: (§1) Wild type (WT) TNC-C and FN-EDB were prepared as described previously. The DNA inserts encoding for hexahistidine-tagged mutant TNC-C variants (TNC-C E48Q, TNC-C D39N D45N, TNC-C D13N E70Q E88Q) and mutant FN-EDBs variants (FnEDB D68N D70N, FnEDB D52N D49N D12N, FnEDB E42Q D68N E64Q) were synthesized and cloned into pET28a+ expression vectors (GenScript Biotech BV, Netherlands). The resulting plasmids were transformed into the E. coli BL21 Rosetta 2 (DE3) pLysS strain (Novagen, #70956). The protein expression was induced with 0.5 mM IPTG and followed by culturing at 20 °C for 16 h. The bacterial cells were lysed by sonication (Bandelin Sonopuls HD 2070, Merck, Germany) in ice-cold IMAC buffer (25 mM Tris-HCL, 400 mM NaCl, 25 mM imidazole pH 8, protease inhibitors cocktail, DNase I, 1 mM MgCl2). […] The protein concentration was measured by bicinchoninic acid (BCA) assay (Thermo Scientific #23227). The protein purity and size were analyzed using 15% SDS-PAGE.
(§2) The recombinant hexahistidine-tagged TNC-C and EDB WT and mutant proteins (at 60 µg of protein/40 µL beads in PBS) were immobilized to Ni-NTA Magnetic Agarose Beads (QIAGEN, Hilden, Germany) at RT for 1 h. […] The fluorescence of eluted samples was quantified using a Victor X5 Multilabel Plate Reader (PerkinElmer, MA, USA) at an excitation wavelength of 485 nm and an emission wavelength of 535 nm.

FN-EDB WT and mutants = biological target: T2, FN-EDB WT and mutants (Homo sapiens, UniProt P02751, D1277N/D1314N/D1317N); experiment: Binding of PL1 nanoworms to recombinant FN-EDB proteins; settings: FAM-labeled NWs, 80 µg/reaction, protein on Ni-NTA beads, fluorescence 485/535 nm, baseline corrected with control protein P32; three independent experiments
T2 construct: Fibronectin Extra Domain B (FN-EDB); made in house; host or cells: E. coli BL21 Rosetta 2 (DE3) pLysS
Procedure: as §1, §2

[1] = biological target: T3, PL1-functionalized iron oxide nanoworms (FAM-labelled PL1 peptide on NWs); experiment: fluorescence readout of FAM-labeled PL1-NW binding to protein-coated NiNTA beads; settings: chain shown with the change; baseline correction with control protein P32; parent: est. 100; read off a plot
T3 chain: PPRRGLIKLKTS

[2] = biological target: Fibronectin Extra Domain B, wild type, hexahistidine-tagged (human) (UniProt P02751); experiment: fluorescence polarisation; fluorescence anisotropy saturation binding in solution; fixed FAM-PL1, 0-112 µM FN-EDB or 0-275 µM TNC-C; PBS with 0.1% Pluronic F-127; 24 h at 25 °C; non-specific binding with 500 µM Biotin-Ahx-PL1; global fit, single site with ligand depletion
[3] = biological target: Tenascin C C-isoform, wild type, hexahistidine-tagged; experiment: as above
[4] = biological target: Fibronectin Extra Domain B mutant D52N D49N D12N, hexahistidine-tagged (human); experiment: binding of fluorescent peptide nanoworms to protein-coated beads; His-tagged proteins (60 µg/40 µL beads) on Ni-NTA magnetic agarose beads; FAM-labelled PL1-NW 80 µg/reaction in PBS, 1% BSA, 0.1% NP40; 6 washes; eluted with 500 mM imidazole; fluorescence 485/535 nm; percent of WT after baseline correction with control protein P32
[5] = biological target: Fibronectin Extra Domain B mutant D52N D49N D12N, hexahistidine-tagged (human); experiment: phage binding assay (titre of eluted phage); His-tagged proteins (30 µg/10 µL beads) on Ni-NTA magnetic agarose beads; T7 phage 5 x 10^8 pfu in 100 µL PBS, 1% BSA, 0.1% NP40, RT, 1 h; 6 washes; eluted with 500 mM imidazole; PFU counted; expressed as percent of WT protein
[6] = biological target: Fibronectin Extra Domain B mutant D68N D70N, hexahistidine-tagged (human); experiment: as above
[7] = biological target: Fibronectin Extra Domain B mutant E42Q D68N E64Q, hexahistidine-tagged (human); experiment: as above
[8] = biological target: T4, PL1 peptide displayed on T7 phage; experiment: phage binding to immobilized recombinant protein (Ni-NTA magnetic beads); settings: chain shown with the change;; parent: est. 100; read off a plot
T4 chain: PPRRGLIKLKTS

T2 sequence (P02751 1271-1359 D1277N/D1314N/D1317N): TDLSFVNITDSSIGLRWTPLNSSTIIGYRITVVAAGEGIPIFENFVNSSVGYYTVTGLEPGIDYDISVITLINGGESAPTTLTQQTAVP

Q: `C[C@@H]1[C@H](O)[C@@H](C)/C=C/C=C/CC/C=C/C=C/C=C/C=C/C(O[C@H]2O[C@H](C)[C@@H](O)[C@H](N)[C@@H]2O)CC2O[C@](O)(CC(O)C(O)CCC(O)CC(O)CC(O)CC(=O)O[C@H]1C)CC(O)C2C(=O)O` (stereo partly shown) [Nystatin] was tested. Which “Effect of inhibitor on the uptake of PL1-AgNPs in U87-MG cells” value (shortened to “Effect of inhibitor”) (U87-MG cells) did it give?
A: statistically significant inhibitory effect

Q: `CN(C)CCCN1c2ccccc2Sc2ccc(Cl)cc21` [Chlorpromazine] was tested. Which “Effect of inhibitor” value (U87-MG cells) did it give?
A: statistically significant inhibitory effect

Q: For `CCN(c1nc(N)c(C(=O)N=C(N)N)nc1Cl)C(C)C` [EIPA, 5-(N-ethyl-N-isopropyl)-Amiloride], which “Effect of inhibitor” value (U87-MG cells) is on record?
A: statistically significant inhibitory effect; also recorded: strongest

Q: Which “Effect of inhibitor” value (U87-MG cells) does the source give for `C=C1[C@@H](C)[C@H]2[C@H](Cc3ccccc3)NC(=O)[C@]23[C@H](OC(C)=O)/C=C/[C@@](C)(O)C(=O)[C@@H](C)C/C=C/[C@H]3[C@@H]1O` [Cytochalasin D] here?
A: statistically significant inhibitory effect

Q: How did the “Reduction of PL1-NW binding to TNC-C D39N D45N mutant versus WT TNC-C” value (TNC-C WT and mutants) turn out when “PL1-NW: iron oxide nanoworms coated with PL1 peptide labeled with FAM fluorophore ({FAM-Ahx}-PPRRGLIKLKTS-OH; also: peptide coated on iron oxide nanoworms)” was run?
A: ~ 100%

Q: And the “Reduction of PL1-NW binding to FN-EDB D52N D49N D12N mutant versus WT FN-EDB” value (FN-EDB WT and mutants)?
A: ~ 76%

B1: Fibronectin Extra Domain B, wild type, hexahistidine-tagged, P02751 E42Q; D68N; E64Q (protein)
chain: EVPQLTDLSFVDITDSSIGLRWTPLNSSTIIGYRITVVAAGQGIPIFEDFVDSSVGYYTVTGLQPGINYDISVITLINGGESAPTTLTQQT
Q: With B1 as the molecule, how does the percent of parent (% Change over wt FnEDB) [1] read?
A: 57

B2: Fibronectin Extra Domain B, wild type, hexahistidine-tagged, P02751 D68N; D70N (protein)
chain: B1 chain with Q42E, Q64E, D70N
Q: Which percent of parent (% Change over wt FnEDB) [1] does the source give for B2 here?
A: 29

B3: FAM-PL1 peptide (free peptide) (peptide)
peptide: {5(6)‑carboxyfluorescein-Ahx}-PPRRGLIKLKTS-OH
Q: Which results are given for B3?
A: Kd [2]: 1.11 µM; Kd [3]: 1.14 µM

B4: PL1-functionalized iron oxide nanoworms (FAM-labelled PL1 peptide on NWs) (peptide)
peptide: {FAM-Ahx}-PPRRGLIKLKTS-OH
modifications: also: peptide coated on iron oxide nanoworms
Q: B4 was tested. Which percent reduction of binding against WT FN-EDB [4] did it give?
A: 76%

B5: PL1 peptide displayed on T7 phage (peptide)
peptide: PPRRGLIKLKTS
Q: B5 was tested. Which percent decrease of binding against WT FN-EDB [5] did it give?
A: 87%

Q: And the percent increase of binding against WT FN-EDB [6]?
A: 142%

Q: What about the percent increase of binding against WT FN-EDB [7] of the same molecule?
A: 161%

B6: Tenascin C C-isoform, wild type, hexahistidine-tagged D13N; E70Q; E88Q (protein)
chain: T1 sequence (P24821 1527-1617 D1565N/D1571N) with D13N, N39D, N45D, E70Q, E88Q
Q: What does the source list for B6?
A: percent of parent (% Change over wt TNC-C) [8]: 33; percent of parent (% Change over wt TNC-C) [1]: 70

B7: Tenascin C C-isoform, wild type, hexahistidine-tagged E48Q (protein)
chain: T1 sequence (P24821 1527-1617 D1565N/D1571N) with N39D, N45D, E48Q
Q: B7 was tested. Which percent of parent (% Change over wt TNC-C) [8] did it give?
A: 38

Q: What about the percent of parent (% Change over wt TNC-C) [1] of the same molecule?
A: 64

B8: Tenascin C C-isoform, wild type, hexahistidine-tagged D39N; D45N (protein)
chain: T1 sequence (P24821 1527-1617 D1565N/D1571N)
Q: B8 was tested. Which percent of parent (% Change over wt TNC-C) [1] did it give?
A: 0
